Legend:
mLDHD [1] = molecular target: T1, mLDHD (Mus musculus, UniProt Q7TNG8, H405A); test: X-ray crystal structure (soak); assay type: binding; details: FAD-bound crystals; no Mn2+ at active site; DL mixture soaked
T1 construct: gene Ldhd
T1 sequence (Q7TNG8 22-484 H405A): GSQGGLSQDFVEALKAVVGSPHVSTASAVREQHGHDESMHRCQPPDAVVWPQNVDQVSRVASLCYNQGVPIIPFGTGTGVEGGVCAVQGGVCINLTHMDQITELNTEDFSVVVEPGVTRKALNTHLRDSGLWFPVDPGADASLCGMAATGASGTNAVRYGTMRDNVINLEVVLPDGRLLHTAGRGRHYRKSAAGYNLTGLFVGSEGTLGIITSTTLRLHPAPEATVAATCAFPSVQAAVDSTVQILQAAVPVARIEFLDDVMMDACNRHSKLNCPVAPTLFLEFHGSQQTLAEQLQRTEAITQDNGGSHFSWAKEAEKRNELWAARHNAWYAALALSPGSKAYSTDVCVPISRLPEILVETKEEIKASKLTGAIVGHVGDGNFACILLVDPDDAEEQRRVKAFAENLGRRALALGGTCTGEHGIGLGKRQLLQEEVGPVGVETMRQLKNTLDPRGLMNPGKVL

mLDHD [2] = molecular target: T2, mLDHD (Mus musculus, UniProt Q7TNG8); test: X-ray crystal structure, […] Å; assay type: binding; details: non-covalently bound, co-purified from expression host
T2 construct: gene Ldhd
T2 sequence (Q7TNG8 22-484): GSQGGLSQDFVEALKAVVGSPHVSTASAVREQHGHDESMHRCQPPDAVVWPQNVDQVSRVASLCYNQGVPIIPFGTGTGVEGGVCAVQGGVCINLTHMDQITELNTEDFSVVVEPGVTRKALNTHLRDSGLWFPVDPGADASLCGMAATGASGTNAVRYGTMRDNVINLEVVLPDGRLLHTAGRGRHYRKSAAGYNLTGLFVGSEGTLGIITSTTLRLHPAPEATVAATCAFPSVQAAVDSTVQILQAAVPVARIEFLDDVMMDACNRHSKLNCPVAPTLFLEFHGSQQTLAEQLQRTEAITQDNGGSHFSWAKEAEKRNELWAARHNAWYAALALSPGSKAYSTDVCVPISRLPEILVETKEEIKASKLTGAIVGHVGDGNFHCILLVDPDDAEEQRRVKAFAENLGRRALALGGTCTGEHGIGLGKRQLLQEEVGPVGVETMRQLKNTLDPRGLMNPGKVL

purified protein [3] = substrate: C[C@@H](O)C(=O)O; test: purified protein; details: 50 mM Tris-HCl pH 7.4, 50 μM MnCl2, 200 μM PMS, 100 μM DCIP, 37 °C
purified protein [4] = substrate: CC(C)CC(O)C(=O)O; test: purified protein; assay type: biochemical, Mus musculus; details: 50 mM Tris-HCl pH 7.4, 50 μM MnCl2, 200 μM PMS, 100 μM DCIP, 37 °C, racemate, KM calculated on D-isomer concentration
purified protein [5] = substrate: CC(C)[C@@H](O)C(=O)O; test: purified protein; assay type: biochemical, Mus musculus; details: 50 mM Tris-HCl pH 7.4, 50 μM MnCl2, 200 μM PMS, 100 μM DCIP, 37 °C
purified protein [6] = substrate: CCC(C)C(O)C(=O)O; test: purified protein; assay type: biochemical, Mus musculus; details: 50 mM Tris-HCl pH 7.4, 50 μM MnCl2, 200 μM PMS, 100 μM DCIP, 37 °C
purified protein [7] = substrate: CCCC(O)C(=O)O; test: purified protein; assay type: biochemical, Mus musculus; details: 50 mM Tris-HCl pH 7.4, 50 μM MnCl2, 200 μM PMS, 100 μM DCIP, 37 °C, racemate, KM calculated on D-isomer concentration
purified protein [8] = substrate: CCCCC(O)C(=O)O; test: purified protein; assay type: biochemical, Mus musculus; details: 50 mM Tris-HCl pH 7.4, 50 μM MnCl2, 200 μM PMS, 100 μM DCIP, 37 °C
purified protein [9] = substrate: CCCCCCC(O)C(=O)O; test: purified protein; assay type: biochemical, Mus musculus; details: 50 mM Tris-HCl pH 7.4, 50 μM MnCl2, 200 μM PMS, 100 μM DCIP, 37 °C
purified protein [10] = substrate: CC[C@@H](O)C(=O)O; test: purified protein; assay type: biochemical, Mus musculus; details: 50 mM Tris-HCl pH 7.4, 50 μM MnCl2, 200 μM PMS, 100 μM DCIP, 37 °C
purified protein [11] = substrate: O=C(O)[C@H](O)Cc1ccccc1; test: purified protein; assay type: biochemical, Mus musculus; details: 50 mM Tris-HCl pH 7.4, 50 μM MnCl2, 200 μM PMS, 100 μM DCIP, 37 °C

`CCCCCC[C@@H](O)C(=O)O` (mixture of isomers) [D-2-HO, D-2-hydroxyoctanoate] was tested, and the “X-ray crystal structure (soak)” value (mLDHD [1]) was “mLDHDH405A in complex with FAD and D-2-hydroxyoctanoate (PDB 8JDB)”.

For `CCC[C@@H](O)C(=O)O` (mixture of isomers) [D-2-HV, D-2-hydroxyvalerate], the “X-ray crystal structure (soak)” value (mLDHD [1]) was “mLDHDH405A in complex with FAD and D-2-hydroxyvalerate (PDB 8JDN)”.

With `CC(C)C[C@@H](O)C(=O)O` (mixture of isomers) [D-2-HIC, D-2-hydroxyisocaproate] the “X-ray crystal structure (soak)” value (mLDHD [1]) was “mLDHDH405A in complex with FAD and D-2-hydroxyisocaproate (PDB 8JDQ)”.

In the case of `Cc1cc2nc3c(=O)[nH]c(=O)nc-3n(C[C@H](O)[C@H](O)[C@H](O)COP(=O)(O)OP(=O)(O)OC[C@H]3O[C@@H](n4cnc5c(N)ncnc54)[C@H](O)[C@@H]3O)c2cc1C` [FAD], the “X-ray crystal structure, 1.70 Å” value (mLDHD [2]) is reported as “mLDHD in complex with FAD (PDB 8JDC)”.

B1: mLDHD (Mus musculus) (protein)
chain: GSQGGLSQDFVEALKAVVGSPHVSTASAVREQHGHDESMHRCQPPDAVVWPQNVDQVSRVASLCYNQGVPIIPFGTGTGVEGGVCAVQGGVCINLTHMDQITELNTEDFSVVVEPGVTRKALNTHLRDSGLWFPVDPGADASLCGMAATGASGTNAVRYGTMRDNVINLEVVLPDGRLLHTAGRGRHYRKSAAGYNLTGLFVGSEGTLGIITSTTLRLHPAPEATVAATCAFPSVQAAVDSTVQILQAAVPVARIEFLDDVMMDACNRHSKLNCPVAPTLFLEFHGSQQTLAEQLQRTEAITQDNGGSHFSWAKEAEKRNELWAARHNAWYAALALSPGSKAYSTDVCVPISRLPEILVETKEEIKASKLTGAIVGHVGDGNFHCILLVDPDDAEEQRRVKAFAENLGRRALALGGTCTGEHGIGLGKRQLLQEEVGPVGVETMRQLKNTLDPRGLMNPGKVL
In the case of B1, the Km (purified protein [3]) is reported as 122.0 ± 4.5 µM, the Vmax (purified protein [3]) is reported as 1.22 µmol/min/mg and the kcat (purified protein [3]) is reported as 1.02 s⁻¹. For the same molecule, the kcat/Km (purified protein [3]) was 8330 M⁻¹ s⁻¹, the Km (purified protein [4]) was 16.4 ± 0.7 µM and the Vmax (purified protein [4]) was 0.902 µmol/min/mg. The kcat (purified protein [4]) was 0.752 ± 0.0133 s⁻¹, the kcat/Km (purified protein [4]) was 45800 M⁻¹ s⁻¹ and the Km (purified protein [5]) was 13.9 ± 1.2 µM. For the same molecule, the Vmax (purified protein [5]) was 1.11 µmol/min/mg, the kcat (purified protein [5]) was 0.925 ± 0.015 s⁻¹ and the kcat/Km (purified protein [5]) was 66500 M⁻¹ s⁻¹. It also gave a Km (purified protein [6]) of 16.5 ± 0.1 µM, a Vmax (purified protein [6]) of 1.01 µmol/min/mg and a kcat (purified protein [6]) of 0.842 ± 0.01 s⁻¹. It also gave a kcat/Km (purified protein [6]) of 51000 M⁻¹ s⁻¹, a Km (purified protein [7]) of 31.4 ± 2.7 µM and a Vmax (purified protein [7]) of 1.12 µmol/min/mg. It also gave a kcat (purified protein [7]) of 0.933 ± 0.0183 s⁻¹, a kcat/Km (purified protein [7]) of 29700 M⁻¹ s⁻¹ and a Km (purified protein [8]) of 34.9 ± 1.6 µM. For the same molecule, the Vmax (purified protein [8]) was 1.48 µmol/min/mg, the kcat (purified protein [8]) was 1.233 ± 0.0117 s⁻¹ and the kcat/Km (purified protein [8]) was 35300 M⁻¹ s⁻¹. It also gave a Km (purified protein [9]) of 104.0 ± 9.0 µM, a Vmax (purified protein [9]) of 0.409 µmol/min/mg and a kcat (purified protein [9]) of 0.342 ± 0.00833 s⁻¹. For the same molecule, the kcat/Km (purified protein [9]) was 3280 M⁻¹ s⁻¹, the Km (purified protein [10]) was 62.9 ± 2.8 µM and the Vmax (purified protein [10]) was 1.6 µmol/min/mg. The kcat (purified protein [10]) was 1.33 ± 0.015 s⁻¹, the kcat/Km (purified protein [10]) was 21200 M⁻¹ s⁻¹ and the Km (purified protein [11]) was 337.0 ± 44.0 µM. The Vmax (purified protein [11]) was 0.788 µmol/min/mg, the kcat (purified protein [11]) was 0.657 ± 0.03 s⁻¹ and the kcat/Km (purified protein [11]) was 1950 M⁻¹ s⁻¹.

— paper PMC10589216, “Lactate dehydrogenase D is a general dehydrogenase for D-2-hydroxyacids and is associated with D-lactic acidosis” (Nature Communications, 2023)
